Article PMC8196545 (Cell reports, 2021)
Like-named read-outs stand apart in the source and are kept apart here.

Columns and labels:
[1] = target: T1, HIV-1 NL4-3 Env on infected cells (HIV-1 group M subtype B, NL4-3 (pNL4-3 …, strain))
[2] = target: gp120 JR-CSF (recombinant) (HIV-1, UniProt P20871); assay: ELISA
[3] = target: T1, HIV-1 NL4-3 Env on infected cells; assay: flow cytometry on cells

Binder	binding result [1]	binding result [2]	binding result [3]
c8567 (antibody, V domains shown) VH: QQQRVETVKHAVDPGSFLIISCPTSGFTFETYAMHWVRQAPGKGLEWVAATSALGEKKYYSNAVKGRFLITRNNSKRTLYLEMSGLKAEDTAVYYCARSQGYCSDFSCYGYYYYMDVWVKGPTVIVSS VL: QSVLTQPPSVSAAPGEKVTISCSGNTTNIGNNFVAWYQHLPQNAPKLLIYEDHKRPFGIPDRFSGSKSGTSATLGISGLQTGDEADYYCQTWDAKLLIWIFGGGTKVTVL	binds		
c8639 (antibody, V domains shown) VH: LLQLHESGPGLVKPSEALSLTCTVSGASATNGLYWAWIRQPPGKGLEWVASLKKWRGYYNPSLGSRVTISHAPDNQISLRLESVTAADAAVYFCVGFFSSSAFDYWGRGTLVTVSS VL: AYVLTQPPSVSVAPGKTAKISCEGNNIGQKAVHWYQQKSGQAPVLFISDGTTRTSGIPARFSGSRSGNTATLTISWVEGGDEADYYCQVMSGDTALFGGGTKLTVL	binds		
HC antibody RI10953 (IgG1) (antibody, V domains shown) VH: EMRLEESGGALVKPGGSLRLSCVASGFKLSEWSLMWVRQAPGKGLQWVSSISLNQDYISYAGSVRGRFDVFRDRTQTSLLLNMNKLKTEDTGVYFCARVHAWRYFDWVNRRSPVEKVLSIDLWGRGTLVIVSS VL: SGATQPPSVSVSKGETARITCSGVELSSQYVSWYRQRPGQSPVLVMFHNNSRASRIPERFSASDSGDTATLTIAGAQDVDEAEYYCQTWDSKNYVTFGGGTKLTVL		binds	
c2718 (antibody, V domains shown) VH: HVQLQQWGAGLLKPSETLSLTCAVYGESFSVYDWAWIRQSPGKGLEWIGEINHDGGTNYNPSLKSRVTISIDIHLRRFSLSLISVTAADTAIYYCARHIGQLEAFDYWGQGALVTVSS VL: QSALTQPASVSGSPGQSITISCTGITSDVGDHSYVSWYQQPPGKAPQLIIYDVVNWPPGVSHRFSGSKSGNTASLTITGLRAEDEADYYCASYRRGSSVVFGGGTKVTVL	binds		
HC antibody RI808 (IgG1) (antibody, V domains shown) VH: QIQLRESGPGLVKPSETLTLTCSVSGGSIFPYFYSWIRQPAGKGLEWIGRLFSNSGSVRSNPSMHTRVGFSMDRSRNQVSLTLTSVTAEDTAVYYCVRDIMREYDDINGAGGYYRGVDVWGRGTMVTVSS VL: NFMLTQPPSVSESPGKTVTISCTRNSGSIASNSVYWYRQRPGSPPTTLIHDNNRRPTGVPDRFSASIDTSSNSASLTISSLKTEDEADYYCQSYDNGNHVIFGGGTNLLVL		binds	
c1821 (antibody, V domains shown) VH: QVQLIQSGAEVKKPGASVKVSCKVSGYTFPEVSMHWVREAPGRGLEWVGGYDPQSAATVYAQRFQGRVTMTEDTSVDTAYMELTSLTSEDTALYFCARSIMIRYGGVIRSFAFDVWGQGTMVIVSS VL: SSELTQDPAVSVALGQTVTITCQGDSLRQYYATWYQRKPGQAPVLVLSGKNKRFSGIPDRFSGSTSGNSASLTIIGTQAEDEADYYCSSRGSDAYPHYVFGTGTKVTVL	binds		
c10814 (antibody, V domains shown) V domain 1: EVRLDQSGTEMRKPGTRVRLSCKVSGHTTSDFFVHWVQQAPQRGPQWMGLINVEDENVIYADIFQGRISIVADTSKKTVFLDLTDLTFEETALYFCATHTLQKDTGDYVAAFDSWGQGTLLYVSS V domain 2: QSVLTQPPSVSAVPGQKVIISCSGRTSNIGTNFVSWYQQFPGAAPKLLIYDNFNRPSGISDRFSASKSDTSATLAITALQAGDEAEYYCGAWDSGLNPAVFVFGSGTRVFVL	binds		
c7809 (antibody, V domains shown) VH: QEQRIESVRAAVEPGASLIISCPTSGFDFDRYTMHWVRQAPGKGLEWVAVTSSQGEKKYYSEAVKGRFLITRNNFKRTLYLEMSSLKPEDAGVYYCARSQGYCGTYACYGYYYYMDVWVKGPTVIVSS VL: QSVLTQPPSVSAAPGEKVAISCSGNTTNIEKNYVAWYQHVPETAPKLLIFENHKRPFGIPDRFSGSKSATSATLGISDLQTADEADYYCQTWDTKLHIWVFGGGTKLTVL	binds		
HC antibody RI5281 (IgG1) (antibody, V domains shown) VH: QVRLAEFGGGVVRPGESLTLSCATSGFSFTSYGMHWVRQTPGKGLEWVAVIWNDGSRRYYSDSVQGRFTIAKDFANKTLSLQMRDLRVGDTAVYFCARAYGPQSEIDSWGQGILVTVSS VL: SYGLTQPSSVSVSPGQTAIITCFGNILPRKSAYWYRQTAGRAPTLVIFGDNNRPSGIPARFSGFTAGTVATLVIAATQVDDEGDYYCYSADNSGNHRGVFGGGTKLTVL		binds	binds
